20 molecules from patent US20260167959A1, “APTAZYME-BASED REGULATABLE GENE EXPRESSION SYSTEMS” (REJUVENATE BIO INC, priority 2022, published 2026) can be followed below.

B1: RA372 (nucleic acid)
DNA: GCGCGTCCTGGATTCGCGGAAACGCGTACATCCAGCTGACGAGTCCCAAACGAGAATACCAGCATCGTCTTGATGCCCTTGGAAGTCTCGTAGGACGAAACGCGC
modifications: expressed or natural sequence
B2: RA374 (nucleic acid)
DNA: GCGCGTCCTGGATTCGCGGAAACGCGTACATCCAGCTGCCGGAATACCAGCATCGTCTTGATGCCCTTGGAAGTCCGGACGAGTCCCAAATAGGACGAAACGCGC
modifications: expressed or natural sequence
B3: RA369 (nucleic acid)
DNA: GCGCGTCCTGGATTCGGAATACCAGCATCGTCTTGATGCCCTTGGAAGTCCGCGCGGAAACGCGTACATCCAGCTGACGAGTCCCAAATAGGACGAAACGCGC
modifications: expressed or natural sequence
B4: RA364 (nucleic acid)
DNA: GCGCGTCCTGGATTCGCGGAAACGCGTGGAATACCAGCATCGTCTTGATGCCCTTGGAAGTCCACATCCAGCTGACGAGTCCCAAATAGGACGAAACGCGC
modifications: expressed or natural sequence
B5: RA375 (nucleic acid)
DNA: GCGCGTCCTGGATTCGCGGAAACGCGTACATCCAGCTCCGGAATACCAGCATCGTCTTGATGCCCTTGGAAGTCCGGGACGAGTCCCAAATAGGACGAAACGCGC
modifications: expressed or natural sequence
B6: RA368 (nucleic acid)
DNA: GCGCGTCCTGGATTCGCGGAAACGCGTACATCCAGCTGACGAGTCCCGAGAATACCAGCATCGTCTTGATGCCCTTGGAAGTCTCGCAAATAGGACGAAACGCGC
modifications: expressed or natural sequence
B7: RA371 (nucleic acid)
DNA: GCGCGTCCTGGATTCGCGGAAACGCGTACATCCAGCTGACGAGTCCCAAAAGAATACCAGCATCGTCTTGATGCCCTTGGAAGTCTTAGGACGAAACGCGC
modifications: expressed or natural sequence
B8: RA365 (nucleic acid)
DNA: GCGAGAATACCAGCATCGTCTTGATGCCCTTGGAAGTCTCGTCCTGGATTCGCGGAAACGCGTACATCCAGCTGACGAGTCCCAAATAGGACGAAACGCGC
modifications: expressed or natural sequence
B9: RA361 (nucleic acid)
DNA: GCGCGTCCTGGATTCGCGGAAACGCGTACATCCAGCTGACGAGTCCCAAATAGGACGAAACGCCCGGAATACCAGCATCGTCTTGATGCCCTTGGAAGTCCGGGC
modifications: expressed or natural sequence
B10: RA376 (nucleic acid)
DNA: GCGCGTCCTGGATTCGCGGAAACGCGTACATCCAGCTGAAGAATACCAGCATCGTCTTGATGCCCTTGGAAGTCTCGAGTCCCAAATAGGACGAAACGCGC
modifications: expressed or natural sequence
B11: RA362 (nucleic acid)
DNA: GCGCGTCCTGGAGGAATACCAGCATCGTCTTGATGCCCTTGGAAGTCCTTCGCGGAAACGCGTACATCCAGCTGACGAGTCCCAAATAGGACGAAACGCGC
modifications: expressed or natural sequence
B12: RA366 (nucleic acid)
DNA: GCGCGTCCTGGATTCGCGGAAGAGAATACCAGCATCGTCTTGATGCCCTTGGAAGTCTCACGCGTACATCCAGCTGACGAGTCCCAAATAGGACGAAACGCGC
modifications: expressed or natural sequence
B13: RA360 (nucleic acid)
DNA: GCAGAATACCAGCATCGTCTTGATGCCCTTGGAAGTCTGCGTCCTGGATTCGCGGAAACGCGTACATCCAGCTGACGAGTCCCAAATAGGACGAAACGCGC
modifications: expressed or natural sequence
B14: RA370 (nucleic acid)
DNA: GCGCGTCCTGGATTCGCGGAAACGCGTACATCCAGCTGACGAGTCCCAAATAGGACGAAACGGGAATACCAGCATCGTCTTGATGCCCTTGGAAGTCCCGC
modifications: expressed or natural sequence
B15: RA367 (nucleic acid)
DNA: GCGCGTCCTGGATGGAATACCAGCATCGTCTTGATGCCCTTGGAAGTCCTCGCGGAAACGCGTACATCCAGCTGACGAGTCCCAAATAGGACGAAACGCGC
modifications: expressed or natural sequence
B16: RA363 (nucleic acid)
DNA: GCGCGTCCTGGATTCGCGGAAACGCGTACATCCAGCTGACGAGTCCCACGGAATACCAGCATCGTCTTGATGCCCTTGGAAGTCCGAATAGGACGAAACGCGC
modifications: expressed or natural sequence
B17: RA373 (nucleic acid)
DNA: GCGCGTCCTGGATTCGCGGAAACGCGTACATCCAGCTGACGAGTCCCAAGTGATACCAGCATCGTCTTGATGCCCTTGGCAGCACTAATAGGACGAAACGCGC
modifications: expressed or natural sequence
B18: RA036 (nucleic acid)
DNA: GCGCGTCCTGGATTCGCGGAAACGCGTACATCCAGCTGACGAGTCCCAAATAGGCGAGAATACCAGCATCGTCTTGATGCCCTTGGAAGTCTCGACGAAACGCGC
modifications: expressed or natural sequence
B19: RA003 (nucleic acid)
DNA: GCGCGTCCTGCGGAATACCAGCATCGTCTTGATGCCCTTGGAAGTCCGGATTCGCGGAAACGCGTACATCCAGCTGACGAGTCCCAAATAGGACGAAACGCGC
modifications: expressed or natural sequence
B20: RA035 (nucleic acid)
DNA: GCGCGTCCTGGATTCGCGGAAACGCGTACATCCAGCTGACGAGTCCCAAATAGGACGAAACGGAATACCAGCATCGTCTTGATGCCCTTGGAAGTCCGCGCGC
modifications: expressed or natural sequence

One series relates to Renilla luciferase RNA. Description: Barcoded aptazyme variant library screen: un-cleaved Renilla luciferase RNA by barcode read counts, HEK293-T cells. It is filed as cell-based. Particulars: un-cleaved Renilla luciferase RNA by barcode read counts; with 1 mM theophylline (ON) over without theophylline (OFF); HEK293-T cells; triplicate. The method in brief: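 Barcode sequencing of cDNA versus DNA, normalized per aptazyme, gave the un-cleaved Renilla luciferase RNA fraction and fold-change with versus without theophylline (triplicates). Library: T3H48 ribozyme with one of seven theophylline aptamer variants inserted at each position, placed in the Renilla 3′ UTR of a dual-luciferase vector.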
Consider B1, for which the “Fold change in RNA expression between the ON state and the OFF state” value (from here on “Fold change”) was 0.8.

In the case of B2, the “Fold change” value came to 0.8.

On to B3, for which the “Fold change” value was 0.8.

Turning to B4, the “Fold change” value amounted to 0.8.

As for B5, the “Fold change” value came to 0.8.

Turning to B6, the “Fold change” value came out at 0.8.

Take B7: the “Fold change” value is reported as 0.8.

In the case of B8, the “Fold change” value is 0.8.

Consider B9, for which the “Fold change” value amounted to 0.8.

Take B10: the “Fold change” value turned out to be 0.8.

B11: the “Fold change” value amounted to 0.8.

As for B12, the “Fold change” value was determined as 0.8.

Regarding B13, the “Fold change” value is 0.8.

As to B14, the “Fold change” value is on record as 0.8.

Regarding B15, the “Fold change” value stood at 0.8.

For B16, the “Fold change” value is given as 0.8.

Turning to B17, the “Fold change” value turned out to be 0.8.

Still in this series, the particulars now being: un-cleaved Renilla luciferase RNA, HEK293-T cells cultured with 1 mM theophylline (ON) over without theophylline (OFF); barcode read counts, triplicate.
As for B18, the “Fold change” value is 2.2 fold.

As for B19, the “Fold change” value came out at 5.5 fold.

For B20, the “Fold change” value is recorded as 2.2 fold.
